Results: patent US20040181033A1 (Amgen, published 2004)

T1: recombinant mature myostatin (human, UniProt O14793 267-375)
T1 sequence (looked up): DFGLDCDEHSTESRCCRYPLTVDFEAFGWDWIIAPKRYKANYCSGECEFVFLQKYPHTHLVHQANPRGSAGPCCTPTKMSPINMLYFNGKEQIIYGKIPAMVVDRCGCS


Key:
[1] = target: T1, recombinant mature myostatin; assay: cell-based or functional assay
[2] = target: T1, recombinant mature myostatin; assay: cell-based or functional assay; remark: listed apart in the source

| IC50 (read off the curve) [1] [µM] | IC50 (C2C12 pMARE-luc) [2] [nM] | Binder |
| --- | --- | --- |
| ~20 |  | QGHCTRWPWMCPPY [TN8-19 peptide] |
|  | ~83 | recombinant human activin receptor IIB/Fc chimera (Fc fusion, UniProt Q13705 19-134, looked up, not shown: a dimerising Fc or GST) SGRGEAETRECIYYNANWELERTNQSGLERCEGEQDKRLHCYASWRNSSGTIELVKKGCWLDDFNCYDRQECVATEENPQVYFCCCEGNFCNERFTHLPEAGGPEVTYEPPPTAPT |
